Test results from patent publication US9011913B2, “Use of functionalized magnetic nanoparticles in cancer detection and treatment” (The Regents of the University of California, priority 2008, dated 2015).
No end group written: not given here.

What was measured:
[1] = Shelf-life of the compounds; format: physicochemical
[2] = Tissue half-life of the particles; details: in vivo
adrenal gland = assay: MRI of adrenal glands after ACTH-MNP injection; format: in vivo, mouse; details: tail vein
Protocol: ACTH-MNP was injected through tail vein (approximately 1 μg iron-oxide per gram of body weight) in a 1-day old mouse and a 60-day old mouse. MR images (T2, TE 6000, TR=[…], 0.4-1 mm slice thickness, 3 cm FOV, Brucker Biospin 7T) were obtain before, and up to 3 hours after injection with these contrast agents.

AtT-20 cells = assay: Functional studies of tumor cells: c-AMP production; format: cell-based, Murine
Protocol: Functional studies of tumor cells. Murine pituitary tumor cell lines (AtT-20 cells; American Type Culture Collection designation CCL-89™) were incubated with CRF and CRF-MNP preparations at 6 different molar concentrations of CRF and CRF-equivalent concentration of CRF-MNP (10^−12-10^−7 molar, factor of 10 increase per step). Production of c-AMP (nM) was measured after equivalent times of incubation with all the preparations.

[3] = equivalent CRF concentrations 10^−12-10^−7 molar

Row | Substance | shelf-life [1] | tissue half-life [2] | uptake in the adrenals (adrenal gland; 1-day old mouse, 5 μl) | uptake in the adrenals (adrenal gland; 60 day old mouse, 100 μl) | cytotoxicity (AtT-20 cells; AtT-20 cells) | functional properties of CRF while conjugated to the nanoparticles (AtT-20 cells; cellular level) | decrease in potency compared to CRF (c-AMP production) (AtT-20 cells; [3]) | increase in efficacy compared to CRF (c-AMP production) (AtT-20 cells; [3])
1 | ACTH-MNP: Adrenocorticotropin Hormone (ACTH)-conjugated dextran-coated and epoxy surface-modified magnetonanoparticles, 10-15 nm diameter (SYSMEHFRWGKPVGKKRRPVKVYPNGAEDESAEAFPLEF; also: conjugated to dextran-coated, epoxy surface-modified magnetic nanoparticles; UniProt P01189 138-176, looked up) | 2-3 months | order of hours to days | increased uptake (decreased signal intensity) | increased uptake (decreased signal intensity) | – | – | – | –
2 | CRF-MNP: CRF-conjugated dextran-coated and maleimide surface-modified magnetonanoparticles, 10-15 nm diameter | 6-12 months | order of hours to days | – | – | not cytotoxic | retains its functional properties | approximately 10 fold | two-fold increase
